According to US20090285813A1:

Molecular target: human CD3 (human) (UniProt P07766)
Test: cell-based or functional assay

human CD3 (human), sequence (P07766 23-207): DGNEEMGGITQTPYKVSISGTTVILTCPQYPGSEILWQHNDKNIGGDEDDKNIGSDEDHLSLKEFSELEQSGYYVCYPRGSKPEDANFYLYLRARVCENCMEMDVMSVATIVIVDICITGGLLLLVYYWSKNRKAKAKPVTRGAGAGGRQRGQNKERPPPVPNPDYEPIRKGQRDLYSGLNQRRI

- Apo-One Apoptosis Assay, 12.5 ng/ml: 250
- Apo-One Apoptosis Assay, 25 ng/ml: 259
- Apo-One Apoptosis Assay, 50 ng/ml: 234
Substance: Irrelevant human IgG1 (EMD Biosciences Cat. 400120) (antibody)
